Reference: the supplement of paper PMC11136658

Test system: peptide library, one residue held at a place counted from the Y acceptor
Experiment: relative phosphorylation of the sub-library (ratio to the mean residue at this position); higher = residue favoured
Summary of the method: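 Within 384-well plates, purified recombinant kinases phosphorylated biotinylated Tyr-centred peptide library mixtures over 90 min using 50 μM ATP spiked with γ-32P-ATP; each mixture fixed one residue at one position from −5 to +5. Streptavidin membrane capture, rinsing, phosphorimaging and ImageQuant gave the intensities. These were normalized per position to the sum of the 18 randomized residues (16 for the Ser/Thr-free library) and multiplied by that number.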

Sequence of PTK2B, construct: aa360-690, human (Q14289 360-690, looked up): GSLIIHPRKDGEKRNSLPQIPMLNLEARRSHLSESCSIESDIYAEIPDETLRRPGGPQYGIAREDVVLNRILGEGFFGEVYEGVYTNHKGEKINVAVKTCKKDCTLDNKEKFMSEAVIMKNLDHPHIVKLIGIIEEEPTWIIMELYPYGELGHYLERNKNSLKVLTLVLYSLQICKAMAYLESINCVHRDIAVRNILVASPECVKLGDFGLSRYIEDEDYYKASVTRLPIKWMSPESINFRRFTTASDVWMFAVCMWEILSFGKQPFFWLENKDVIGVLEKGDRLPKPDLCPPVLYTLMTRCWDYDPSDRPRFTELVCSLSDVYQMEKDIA

PTK2B, construct: aa360-690, human (from UniProt Q14289)
relative phosphorylation
Conditions | at +1 | at +2 | at +3 | at +4 | at +5 | at -1 | at -2 | at -3 | at -4 | at -5
A fixed | 2.28 | 0.739 | 0.756 | 0.904 | 1.08 | 0.722 | 1.03 | 1.03 | 1.15 | 1.03
D fixed | 1.55 | 0.792 | 0.312 | 0.86 | 0.799 | 0.478 | 1.34 | 1.28 | 0.976 | 0.952
E fixed | 2.04 | 1.29 | 0.341 | 0.961 | 0.887 | 0.489 | 1.54 | 1.52 | 0.85 | 0.801
F fixed | 0.834 | 1.85 | 1.42 | 1.04 | 0.992 | 1.06 | 0.634 | 0.986 | 1.29 | 1.07
G fixed | 1.1 | 0.402 | 0.58 | 1.02 | 1.31 | 0.297 | 1.06 | 1.07 | 1.23 | 1.14
H fixed | 0.593 | 0.657 | 0.685 | 1.05 | 0.966 | 0.719 | 0.953 | 0.965 | 1.01 | 1.05
I fixed | 1.12 | 1.56 | 2.46 | 0.896 | 0.903 | 4.36 | 1.02 | 0.657 | 0.851 | 0.978
K fixed | 0.171 | 0.444 | 0.228 | 0.762 | 0.731 | 0.29 | 0.703 | 0.866 | 0.915 | 1.13
L fixed | 0.499 | 1.68 | 1.61 | 0.925 | 0.92 | 1.99 | 1.02 | 0.816 | 1.07 | 1.04
M fixed | 0.908 | 1.13 | 1.11 | 1.15 | 1 | 0.811 | 0.729 | 0.903 | 0.939 | 1.08
N fixed | 0.297 | 0.815 | 0.397 | 0.711 | 0.838 | 0.63 | 1.13 | 1.18 | 0.937 | 1.02
P fixed | 0.374 | 0.702 | 2.31 | 1.08 | 1.72 | 0.488 | 1.15 | 0.97 | 1.14 | 1.01
Q fixed | 0.788 | 0.679 | 0.365 | 0.992 | 0.758 | 0.443 | 1.09 | 0.895 | 0.918 | 0.896
R fixed | 0.215 | 0.603 | 0.298 | 0.938 | 0.912 | 0.374 | 0.748 | 0.923 | 0.969 | 1.16
S fixed | 1.15 | 0.82 | 0.669 | 0.981 | 1.1 | 0.534 | 1.08 | 1.27 | 0.927 | 0.98
T fixed | 1.02 | 0.823 | 0.794 | 0.875 | 1.09 | 0.935 | 0.962 | 1.02 | 0.679 | 0.825
V fixed | 2.02 | 1.27 | 2.28 | 1.09 | 0.926 | 2.67 | 1.2 | 0.704 | 0.86 | 0.926
W fixed | 1.04 | 1.75 | 1.4 | 1.77 | 1.07 | 0.714 | 0.613 | 0.95 | 1.3 | 0.917
pThr fixed | 3.7 | 2.29 | 0.44 | 0.84 | 0.752 | 0.624 | 1.09 | 0.878 | 0.728 | 0.817
pTyr fixed | 2.13 | 6.16 | 0.885 | 1.48 | 0.901 | 1.53 | 1.17 | 1.32 | 0.964 | 0.94

PTK6, construct: Full length, human (from UniProt Q13882)
relative phosphorylation
Conditions | at +1 | at +2 | at +3 | at +4 | at +5 | at -1 | at -2 | at -3 | at -4 | at -5
A fixed | 0.945 | 0.766 | 0.805 | 0.972 | 0.852 | 0.665 | 0.982 | 0.951 | 1.08 | 1.03
D fixed | 0.404 | 0.528 | 1.01 | 0.758 | 0.874 | 0.64 | 1.12 | 1.18 | 1.33 | 1.15
E fixed | 1.42 | 0.424 | 0.846 | 0.904 | 0.956 | 0.542 | 1.27 | 1.79 | 1.39 | 1.17
F fixed | 0.732 | 1.11 | 1.43 | 1.22 | 1.45 | 2.44 | 0.78 | 1.19 | 1.12 | 1.07
G fixed | 1.13 | 0.736 | 1.32 | 1.11 | 1.02 | 0.288 | 1.28 | 0.942 | 1.12 | 1.07
H fixed | 0.786 | 0.574 | 1.3 | 1.05 | 0.954 | 1.52 | 1.18 | 1.04 | 1.04 | 0.925
I fixed | 1.23 | 1.12 | 0.957 | 0.798 | 1.12 | 3.11 | 0.824 | 0.81 | 0.822 | 0.888
K fixed | 0.652 | 0.804 | 0.718 | 0.949 | 0.775 | 0.283 | 0.529 | 0.728 | 0.697 | 0.917
L fixed | 0.869 | 1.47 | 0.689 | 0.813 | 1.06 | 1.62 | 0.881 | 0.879 | 0.919 | 0.99
M fixed | 1.02 | 1.51 | 0.755 | 1.09 | 1.08 | 0.805 | 0.702 | 0.867 | 0.843 | 0.948
N fixed | 0.91 | 1.04 | 0.812 | 0.784 | 0.878 | 0.587 | 1.17 | 1.25 | 1.22 | 1.11
P fixed | 0.223 | 1.1 | 0.995 | 1.35 | 1.36 | 0.774 | 0.976 | 0.869 | 1.11 | 1.1
Q fixed | 1.32 | 0.607 | 0.763 | 1.01 | 0.75 | 0.43 | 0.998 | 0.811 | 0.977 | 0.995
R fixed | 1.07 | 1.12 | 0.985 | 1.17 | 0.853 | 0.261 | 0.631 | 0.86 | 0.821 | 0.997
S fixed | 1.24 | 0.902 | 0.97 | 0.871 | 0.837 | 0.418 | 1.2 | 0.962 | 0.833 | 0.863
T fixed | 1.64 | 0.587 | 0.732 | 0.72 | 0.818 | 0.83 | 0.814 | 0.84 | 0.637 | 0.778
V fixed | 1.48 | 0.616 | 0.863 | 0.884 | 0.898 | 1.43 | 0.855 | 0.705 | 0.742 | 0.632
W fixed | 0.938 | 2.98 | 2.04 | 1.55 | 1.46 | 1.35 | 1.81 | 1.33 | 1.3 | 1.38
pThr fixed | 0.711 | 0.441 | 0.759 | 0.797 | 0.891 | 0.57 | 0.79 | 0.848 | 0.878 | 1.08
pTyr fixed | 1.06 | 0.75 | 1.06 | 1.28 | 1.08 | 3.6 | 1.01 | 1.21 | 1.15 | 1.14
